Experiments:
human integrin α10 = molecular target: T1, human integrin α10 (human, UniProt O75578 23-1167); assay: FACS on human integrin α10 introduced CHO cells
T1 construct: whole, on cells
T1 sequence (looked up): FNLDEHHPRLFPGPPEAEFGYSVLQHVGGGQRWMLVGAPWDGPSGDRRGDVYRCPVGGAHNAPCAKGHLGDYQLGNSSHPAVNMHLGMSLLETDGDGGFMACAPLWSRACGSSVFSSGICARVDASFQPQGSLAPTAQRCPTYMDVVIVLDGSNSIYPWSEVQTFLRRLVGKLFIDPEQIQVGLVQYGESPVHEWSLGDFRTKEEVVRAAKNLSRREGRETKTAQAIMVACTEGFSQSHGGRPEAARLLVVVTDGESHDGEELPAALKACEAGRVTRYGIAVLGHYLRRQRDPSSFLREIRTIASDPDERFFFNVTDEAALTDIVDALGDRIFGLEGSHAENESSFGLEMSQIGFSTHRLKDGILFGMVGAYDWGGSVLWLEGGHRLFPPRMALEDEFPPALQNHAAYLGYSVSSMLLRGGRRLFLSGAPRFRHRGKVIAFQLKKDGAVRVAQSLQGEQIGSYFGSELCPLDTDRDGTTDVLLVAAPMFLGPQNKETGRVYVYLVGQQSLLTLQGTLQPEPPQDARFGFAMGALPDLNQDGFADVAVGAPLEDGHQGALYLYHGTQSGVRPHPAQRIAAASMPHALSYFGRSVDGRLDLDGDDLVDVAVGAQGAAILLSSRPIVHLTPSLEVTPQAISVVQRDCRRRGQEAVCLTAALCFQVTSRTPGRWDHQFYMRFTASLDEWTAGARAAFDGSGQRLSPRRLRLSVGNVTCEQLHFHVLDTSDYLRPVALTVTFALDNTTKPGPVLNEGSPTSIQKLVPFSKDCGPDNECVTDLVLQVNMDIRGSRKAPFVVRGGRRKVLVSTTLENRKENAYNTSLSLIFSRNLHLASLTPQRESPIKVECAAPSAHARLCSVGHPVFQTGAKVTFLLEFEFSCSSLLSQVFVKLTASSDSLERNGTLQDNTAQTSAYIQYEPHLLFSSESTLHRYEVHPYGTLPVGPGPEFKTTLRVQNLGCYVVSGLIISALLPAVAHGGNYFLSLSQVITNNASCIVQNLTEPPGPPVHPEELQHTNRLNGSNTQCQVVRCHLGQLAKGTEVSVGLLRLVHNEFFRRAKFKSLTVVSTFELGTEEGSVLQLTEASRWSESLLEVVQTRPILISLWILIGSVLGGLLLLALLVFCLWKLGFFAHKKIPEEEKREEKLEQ
Description: (§1) Reactivity (specificity) with respect to α11 in the antibody which has been converted into IgG was analyzed based on presence or absence of reactivity with respect to other collagen binding integrins α1, α2, and α10. First, reactivity of the antibody with respect to the CHO cell and the human integrin α11 introduced CHO cell was analyzed by FACS. Subsequently, reactivity of the antibody with respect to a human colorectal carcinoma cell line (SW480 cell: cell line expressing endogenous α1 and α2) and a human integrin α10 introduced CHO cell was analyzed by FACS. The reaction conditions of FACS using the IgG antibody are as follows. That is, the antibody as a primary antibody was added to a cell at a concentration of 5 μg/ml to react with the cell on ice for 25 minutes. After washing, PE labeled anti-mouse IgG antibody as a secondary antibody was added to the cell at a concentration of 2 μg/ml to react with the cell on ice for 15 minutes. The subsequent FACS processes were carried out under the same conditions.

[1] = molecular target: T2, integrin α1 (endogenous on human colorectal carcinoma SW480 cells) (human, UniProt P56199 29-1179); assay: FACS on SW480 cells expressing endogenous α1 and α2
T2 construct: whole, on cells
T2 sequence (looked up): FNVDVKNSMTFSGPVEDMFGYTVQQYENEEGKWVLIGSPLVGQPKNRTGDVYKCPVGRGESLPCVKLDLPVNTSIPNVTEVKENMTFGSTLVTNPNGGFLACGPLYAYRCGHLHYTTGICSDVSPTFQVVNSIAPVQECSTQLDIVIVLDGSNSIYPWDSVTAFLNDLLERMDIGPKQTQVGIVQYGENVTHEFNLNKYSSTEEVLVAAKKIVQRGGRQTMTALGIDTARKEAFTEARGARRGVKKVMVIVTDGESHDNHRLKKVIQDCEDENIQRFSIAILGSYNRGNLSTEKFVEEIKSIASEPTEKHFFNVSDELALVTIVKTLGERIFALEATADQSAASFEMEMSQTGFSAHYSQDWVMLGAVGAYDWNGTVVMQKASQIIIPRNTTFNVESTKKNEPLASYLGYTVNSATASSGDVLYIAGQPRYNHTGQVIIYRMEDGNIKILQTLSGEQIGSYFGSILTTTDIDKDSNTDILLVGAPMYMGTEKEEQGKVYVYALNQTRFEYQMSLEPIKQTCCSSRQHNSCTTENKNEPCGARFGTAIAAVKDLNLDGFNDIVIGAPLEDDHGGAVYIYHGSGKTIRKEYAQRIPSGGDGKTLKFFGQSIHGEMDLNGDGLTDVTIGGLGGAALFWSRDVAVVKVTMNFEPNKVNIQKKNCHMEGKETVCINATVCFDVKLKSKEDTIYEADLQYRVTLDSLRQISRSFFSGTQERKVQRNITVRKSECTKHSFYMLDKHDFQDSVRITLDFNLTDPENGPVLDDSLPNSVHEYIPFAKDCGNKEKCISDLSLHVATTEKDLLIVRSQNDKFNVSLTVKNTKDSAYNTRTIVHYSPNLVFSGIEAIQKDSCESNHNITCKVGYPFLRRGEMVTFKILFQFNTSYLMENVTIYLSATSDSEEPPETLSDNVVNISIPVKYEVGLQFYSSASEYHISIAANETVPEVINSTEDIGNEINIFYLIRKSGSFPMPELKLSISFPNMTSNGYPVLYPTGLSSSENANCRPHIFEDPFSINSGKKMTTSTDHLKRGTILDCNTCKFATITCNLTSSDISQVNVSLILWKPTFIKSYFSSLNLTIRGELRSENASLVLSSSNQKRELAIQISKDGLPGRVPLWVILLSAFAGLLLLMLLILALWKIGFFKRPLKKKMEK
Description: as §1

[2] = molecular target: T3, integrin α2 (endogenous on human colorectal carcinoma SW480 cells) (human, UniProt P17301 30-1181); assay: as above
T3 construct: whole, on cells
T3 sequence (looked up): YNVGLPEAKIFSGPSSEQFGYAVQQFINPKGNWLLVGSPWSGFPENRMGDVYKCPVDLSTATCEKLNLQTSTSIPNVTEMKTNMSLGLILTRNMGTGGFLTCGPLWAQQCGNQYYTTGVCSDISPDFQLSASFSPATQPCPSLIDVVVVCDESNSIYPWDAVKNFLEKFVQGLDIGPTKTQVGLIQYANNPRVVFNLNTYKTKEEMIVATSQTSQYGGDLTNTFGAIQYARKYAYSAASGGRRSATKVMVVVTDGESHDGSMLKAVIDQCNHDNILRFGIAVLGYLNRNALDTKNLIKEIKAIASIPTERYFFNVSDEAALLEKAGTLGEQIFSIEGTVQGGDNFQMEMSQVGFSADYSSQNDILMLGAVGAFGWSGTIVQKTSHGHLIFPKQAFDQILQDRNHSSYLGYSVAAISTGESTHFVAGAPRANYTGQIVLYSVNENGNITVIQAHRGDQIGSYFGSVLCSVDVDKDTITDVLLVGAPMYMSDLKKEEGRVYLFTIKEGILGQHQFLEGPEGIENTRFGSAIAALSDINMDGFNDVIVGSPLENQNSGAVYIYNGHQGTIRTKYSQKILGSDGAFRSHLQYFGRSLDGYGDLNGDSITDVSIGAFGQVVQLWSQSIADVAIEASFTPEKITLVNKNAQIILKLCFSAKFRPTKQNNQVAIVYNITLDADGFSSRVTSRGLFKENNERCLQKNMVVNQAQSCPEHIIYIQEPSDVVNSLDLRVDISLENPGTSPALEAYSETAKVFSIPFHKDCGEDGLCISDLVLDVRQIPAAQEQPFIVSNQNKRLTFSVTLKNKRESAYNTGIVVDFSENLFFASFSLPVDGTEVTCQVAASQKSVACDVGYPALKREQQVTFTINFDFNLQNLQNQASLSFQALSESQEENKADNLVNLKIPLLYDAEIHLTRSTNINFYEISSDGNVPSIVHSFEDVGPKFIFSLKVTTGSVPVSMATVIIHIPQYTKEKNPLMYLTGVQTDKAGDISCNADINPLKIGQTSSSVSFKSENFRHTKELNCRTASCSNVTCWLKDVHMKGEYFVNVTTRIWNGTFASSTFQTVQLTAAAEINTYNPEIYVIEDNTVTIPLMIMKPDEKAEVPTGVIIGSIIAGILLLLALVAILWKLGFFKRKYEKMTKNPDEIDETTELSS
Description: as §1

binding result (human integrin α10): no binding (tested: 5 µg/ml) | binding result [1]: no binding (tested: 5 µg/ml) | binding result [2]: no binding (tested: 5 µg/ml)
B1: wild-type #33 IgG (anti-integrin α11 monoclonal antibody, chicken-mouse chimeric IgG1) (antibody, V domains shown)
VH: AVTLDESGGGLQTPGGALSLVCKGSGFTFSSYGMQWVRQAPGRGLEWVAGIDDDGSFTLYGAAVDGRATISRDNGQTTVRLQLSDLRAEDTATYFCAKGGYGYCWYGDAACIDAWGHGTEVIVSS
VL: AVTQPSSVSANPGETVKITCSGGSDSWYGWYQQKSPGSAPVTVIYSNNQRPSNIPSRFSGSTSGSTSTLTITGVQADDEAVYFCGSRDSSYDGIFGAGTTLTVLK
notes: Chicken VH linked to a mouse IgG1 constant region and chicken VL linked to a mouse Igκ region; His-tagged at the C-terminal; also called the antibody

Source: US20230065153A1 (HIROSHIMA UNIVERSITY, published 2023)
